Experiment [1] deals with T1, TIM-3 (antigen; species and construct not stated for the assay) (UniProt Q8TDQ0 22-202, limits assumed). Put plainly: SPR (Biacore), run of May 30, 2014. For orientation: In SPR one partner is held on a chip, and binding of the other changes the refractive index at the surface.
The target in experiment [2] is T1, TIM-3 (antigen; species and construct …). Put plainly: SPR (Biacore), run of May 1, 2014.
Experiment [3] shares this target. Put plainly: SPR (Biacore), run of Apr. 29, 2014.
For experiment [4] the target is unchanged. Put plainly: FACS competition binding against the parent murine ABTIM3; cells not named on the sheet.
For experiment [5] the target is unchanged. Put plainly: SPR (Biacore), run of Apr. 7, 2014.
The target in another experiment is T2, ratTIM-3/Fc (rat, UniProt P0C0K5 22-194, limits assumed).
T2 construct: also called rat TIM-3/Fc protein
T2 sequence (looked up): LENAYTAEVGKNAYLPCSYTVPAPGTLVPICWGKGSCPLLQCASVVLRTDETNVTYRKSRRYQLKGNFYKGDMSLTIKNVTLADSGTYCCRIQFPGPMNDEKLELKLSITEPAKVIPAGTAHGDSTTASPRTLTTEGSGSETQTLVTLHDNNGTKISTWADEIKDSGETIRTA
Put plainly: SPR (Biacore), run 2.

For experiment [6], the target named is T3, cynoTIM-3/Fc (cynomolgus monkey, UniProt A0A2K5U3G7 22-195).
T3 sequence: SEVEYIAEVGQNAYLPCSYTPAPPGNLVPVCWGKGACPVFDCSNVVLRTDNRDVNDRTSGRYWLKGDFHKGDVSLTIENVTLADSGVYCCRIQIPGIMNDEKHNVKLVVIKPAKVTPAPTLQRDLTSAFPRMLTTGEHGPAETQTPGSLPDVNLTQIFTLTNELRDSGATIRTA
Put plainly: SPR (Biacore), run 2.

Experiment [7] has as its target T3, cynoTIM-3/Fc. Put plainly: SPR (Biacore), run 1; run 1 of three; cynoTIM-3/Fc.
Experiment [8] has as its target T3, cynoTIM-3/Fc. Put plainly: SPR (Biacore), run 3.
The target of experiment [9] is T3, cynoTIM-3/Fc. Put plainly: SPR (Biacore), mean KD.
The target in experiment [10] is T4, human TIM-3 expressed on cells (human, UniProt Q8TDQ0 22-301).
T4 construct: also called huTIM-3; hTIM-3
Put plainly: flow cytometry competition on 300.19 hTIM-3 cells against PE-labelled ABTIM3-hum21.

Experiment [11] has as its target T4, human TIM-3 expressed on cells. Put plainly: flow cytometry on cells expressing human TIM-3. (Flow cytometry measures light scatter and fluorescence of single cells or particles in a stream.)
A further experiment concerns the target T5, huTIM-3/his (human, UniProt Q8TDQ0 22-202).
T5 construct: also called hTIM-3/his antigen
Put plainly: Biacore, 2nd antibody injection; 1st antibody (competitor) ABTIM3-hum21.

The source of these data is patent publication US20250213684A1 (Novartis, published 2025).

“And” between values parts separate entries of the source, which are not always exact repeats. Equal entries are not always repeated.

B1: ABTIM3-hum10 (antibody, human IgG4 S228P, kappa, V domains shown)
VH: EVQLVQSGAEVKKPGESLKISCKGSGYTFTSYNMHWVRQMPGKGLEWMGDIYPGNGDTSYNQKFKGQVTISADKSISTVYLQWSSLKASDTAMYYCARVGGAFPMDYWGQGTTVTVSS
VL: EIVLTQSPATLSLSPGERATLSCRASESVEYYGTSLMQWYQQKPGQAPRLLIYAASNVESGIPARFSGSGSGTDFTLTISSLEPEDIAVYFCQQSRKDPSTFGGGTKVEIKR
notes: Humanized
One may read the Kd as the concentration at which binding is half-saturated. A lower Kd goes with tighter binding. B1 yielded a Kd in experiment [1] of 0.107 nM.

B2: ABTIM3-hum12 (antibody, human IgG4 S228P, kappa, V domains shown)
VH: EVQLVQSGAEVKKPGESLKISCKGSGYTFTSYNMHWVRQMPGKGLEWMGDIYPGNGDTSYNQKFKGQVTISADKSISTVYLQWSSLKASDTAMYYCARVGGAFPMDYWGQGTTVTVSS
VL: AIQLTQSPSSLSASVGDRVTITCRASESVEYYGTSLMQWYQQKPGKAPKLLIYAASNVESGVPSRFSGSGSGTDFTLTISSLQPEDFATYFCQQSRKDPSTFGGGTKVEIKR
notes: Humanized
Regarding B2, the Kd in experiment [1] is 0.355 nM.

B3: ABTIM3-hum02 (antibody, human IgG4 S228P, kappa, V domains shown)
VH: QVQLVQSGAEVKKPGASVKVSCKASGYTFTSYNMHWVRQAPGQGLEWIGDIYPGSGDTSYNQKFKGRATMTADKSTSTVYMELSSLRSEDTAVYYCARVGGAFPMDYWGQGTLVTVSS
VL: DIVLTQSPDSLAVSLGERATINCRASESVEYYGTSLMQWYQQKPGQPPKLLIYAASNVESGVPDRFSGSGSGTDFTLTISSLQAEDVAVYYCQQSRKDPSTFGGGTKVEIKR
notes: Humanized
With B3, the results for the dissociation constant Kd in [2], in [3] and in experiment [1] were 0.269 nM, 0.308 nM and 0.174 nM, respectively.

B4: ABTIM3-hum07 (antibody, human IgG4 S228P, kappa, V domains shown)
VH: QVQLVQSGAEVKKPGASVKVSCKASGYTFTSYNMHWIRQAPGQGLEWIGDIYPGNGDTSYNQKFKGRATLTADKSTSTVYMELSSLRSEDTAVYYCARVGGAFPMDYWGQGTLVTVSS
VL: DIVLTQSPDSLAVSLGERATINCRASESVEYYGTSLMQWYQQKPGQPPKLLIYAASNVESGVPDRFSGSGSGTDFTLTISSLQAEDVAVYYCQQSRKDPSTFGGGTKVEIKR
notes: Humanized
On to B4, for which the Kd in [2] was determined as 0.199 nM; in experiment [5], 0.135 nM; in [1], 0.196 nM. In addition, in experiment [4], the “IC50 (read off the curve)” value is approximately 0.2 µg/mL.

B5: ABTIM3-hum09 (antibody, human IgG4 S228P, kappa, V domains shown)
VH: QVQLVQSGAEVKKPGSSVKVSCKASGYTFTSYNMHWVRQAPGQGLEWMGDIYPGNGDTSYNQKFKGRVTITADKSTSTVYMELSSLRSEDTAVYYCARVGGAFPMDYWGQGTTVTVSS
VL: EIVLTQSPATLSLSPGERATLSCRASESVEYYGTSLMQWYQQKPGQAPRLLIYAASNVESGIPARFSGSGSGTDFTLTISSLEPEDIAVYFCQQSRKDPSTFGGGTKVEIKR
notes: Humanized
On to B5, for which binding in experiment [1] was put at a Kd of 0.161 nM.

B6: ABTIM3-hum08 (antibody, human IgG4 S228P, kappa, V domains shown)
VH: QVQLVQSGAEVKKPGASVKVSCKASGYTFTSYNMHWVRQAPGQGLEWIGDIYPGNGDTSYNQKFKGRATMTADKSTSTVYMELSSLRSEDTAVYYCARVGGAFPMDYWGQGTLVTVSS
VL: DIVLTQSPDSLAVSLGERATINCRASESVEYYGTSLMQWYQQKPGQPPKLLIYAASNVESGVPDRFSGSGSGTDFTLTISSLQAEDVAVYFCQQSRKDPSTFGGGTKVEIKR
notes: Humanized
For B6, the dissociation constant (Kd) in experiment [2] was 0.309 nM; in experiment [5] it was 0.123 nM; in experiment [1], 0.175 nM. In [4], the “IC50 (read off the curve)” value was approximately 0.2 µg/mL.

B7: ABTIM3-hum04 (antibody, human IgG4 S228P, kappa, V domains shown)
VH: QVQLVQSGAEVKKPGASVKVSCKASGYTFTSYNMHWIRQAPGQGLEWIGDIYPGNGDTSYNQKFKGRATLTADKSTSTVYMELSSLRSEDTAVYYCARVGGAFPMDYWGQGTLVTVSS
VL: DIVLTQSPDSLAVSLGERATINCRASESVEYYGTSLMQWYQQKPGQPPKLLIYAASNVESGVPDRFSGSGSGTDFTLTISSLQAEDVAVYFCQQSRKDPSTFGGGTKVEIKR
notes: Humanized
On to B7, for which the “IC50 (read off the curve)” value in experiment [4] is approximately 0.2 µg/mL. The Kd in [5] was 0.216 nM; in [1] it was 0.172 nM.

B8: ABTIM3-hum01 (antibody, human IgG4 S228P, kappa, V domains shown)
VH: QVQLVQSGAEVKKPGASVKVSCKASGYTFTSYNMHWVRQAPGQGLEWIGDIYPGNGDTSYNQKFKGRATMTADKSTSTVYMELSSLRSEDTAVYYCARVGGAFPMDYWGQGTLVTVSS
VL: DIVLTQSPDSLAVSLGERATINCRASESVEYYGTSLMQWYQQKPGQPPKLLIYAASNVESGVPDRFSGSGSGTDFTLTISSLQAEDVAVYYCQQSRKDPSTFGGGTKVEIKR
notes: Humanized
Turning to B8, the Kd in experiment [2] was 0.114 nM; in experiment [5] it was 0.103 nM; in experiment [1] it was 0.23 nM and 0.193 nM. Further, in experiment [4], the “IC50 (read off the curve)” value is approximately 0.2 µg/mL.

B9: ABTIM3-hum06 (antibody, human IgG4 S228P, kappa, V domains shown)
VH: QVQLVQSGAEVKKPGASVKVSCKASGYTFTSYNMHWIRQAPGQGLEWIGDIYPGQGDTSYNQKFKGRATLTADKSTSTVYMELSSLRSEDTAVYYCARVGGAFPMDYWGQGTLVTVSS
VL: DIVLTQSPDSLAVSLGERATINCRASESVEYYGTSLMQWYQQKPGQPPKLLIYAASNVESGVPDRFSGSGSGTDFTLTISSLQAEDVAVYFCQQSRKDPSTFGGGTKVEIKR
notes: Humanized
For the molecule B9, the values for the Kd in [2], in experiment [3] and in experiment [1] were 0.214 nM, 0.498 nM and 0.364 nM, respectively.

B10: ABTIM3-hum03 (antibody, human IgG4 S228P, kappa)
heavy: not shown
light: DIVLTQSPDSLAVSLGERATINCRASESVEYYGTSLMQWYQQKPGQPPKLLIYAASNVESGVPDRFSGSGSGTDFTLTISSLQAEDVAVYYCQQSRKDPSTFGGGTKVEIKRTVAAPSVFIFPPSDEQLKSGTASVVCLLNNFYPREAKVQWKVDNALQSGNSQESVTEQDSKDSTYSLSSTLTLSKADYEKHKVYACEVTHQGLSSPVTKSFNRGEC
notes: Humanized; Immobilized on Protein G beads and cross-linked with DSS in the HDx-MS experiment
Take B10: the dissociation constant Kd with ratTIM-3/Fc was determined as 51 nM; in the experiment with cynoTIM-3/Fc [6], 3.89 nM; with cynoTIM-3/Fc [7], 1.04 nM; in the experiment with cynoTIM-3/Fc [8], 3.08 nM; in the experiment with cynoTIM-3/Fc [9], 2.67 nM.

B11: ABTIM3-hum05 (antibody, human IgG4 S228P, kappa, V domains shown)
VH: QVQLVQSGAEVKKPGASVKVSCKASGYTFTSYNMHWIRQAPGQGLEWIGDIYPGSGDTSYNQKFKGRATLTADKSTSTVYMELSSLRSEDTAVYYCARVGGAFPMDYWGQGTLVTVSS
VL: DIVLTQSPDSLAVSLGERATINCRASESVEYYGTSLMQWYQQKPGQPPKLLIYAASNVESGVPDRFSGSGSGTDFTLTISSLQAEDVAVYFCQQSRKDPSTFGGGTKVEIKR
notes: Humanized
On to B11, for which the dissociation constant (Kd) worked out at 0.279 nM in [2], 0.313 nM in experiment [3] and 0.332 nM in [1].

B12: ABTIM3-hum21 (antibody, human IgG1, kappa)
heavy: not shown
light: DIVLTQSPDSLAVSLGERATINCRASESVEYYGTSLMQWYQQKPGQPPKLLIYAASNVESGVPDRFSGSGSGTDFTLTISSLQAEDVAVYYCQQSRKDPSTFGGGTKVEIKRTVAAPSVFIFPPSDEQLKSGTASVVCLLNNFYPREAKVQWKVDNALQSGNSQESVTEQDSKDSTYSLSSTLTLSKADYEKHKVYACEVTHQGLSSPVTKSFNRGEC
notes: Humanized
As to B12, in [10], the “IC50 (read off the curve)” value is approximately 0.4 µg/mL. In experiment [11], this molecule registered a Kd of 0.917 nM. The “change in RU” value with huTIM-3/his was 6.6 RU.
